Laboratory results reported in paper doi:10.1101/2022.12.01.518643 (bioRxiv, 2022).

B1: SARS-CoV-2 homolog of the OC43 peptide P4 (peptide)
chain: RSFIEDLLFNKVTLA
modifications: not checked

Columns and labels:
[1] = biological target: soluble DP4 (HLA-DPA1*01:03/DPB1*04:01) (human); experiment: fluorescence polarisation
[2] = biological target: soluble DP4 (HLA-DPA1*01:03/DPB1*04:01) (human); experiment: fluorescence polarisation; remark: listed apart in the source

| Molecule | IC50 [1] [nM] | fold change of binding against the OC43 peptide P4 [2] [fold] |
| --- | --- | --- |
| OC43 hemagglutinin esterase peptide 259–273 (P1) | < 1000 |  |
| B1 |  | 10 |
